Reference: publication PMC5286394, “Architecture of the yeast Elongator complex” (EMBO Reports, 2016)

B4: endogenous Elp3 (enzyme, UniProt Q02908 1-557, looked up)
chain: MARHGKGPKTNKKKLAPEKERFIQCCADITLELTDSLTSGTTREINLNGLITKYSKKYKLKQQPRLTDIINSIPDQYKKYLLPKLKAKPVRTASGIAVVAVMCKPHRCPHIAYTGNICVYCPGGPDSDFEYSTQSYTGYEPTSMRAIRARYDPYEQARGRVEQLKQLGHSIDKVEYVLMGGTFMSLPKEYREDFIVKLHNALSGFNGNDIDEAILYSQQSLTKCVGITIETRPDYCTQTHLDDMLKYGCTRLEIGVQSLYEDVARDTNRGHTVRSVCETFAVSKDAGYKVVSHMMPDLPNVGMERDIEQFKEYFENPDFRTDGLKIYPTLVIRGTGLYELWKTGRYKSYSANALVDLVARILALVPPWTRIYRVQRDIPMPLVTSGVDNGNLRELALARMKDLGTTCRDVRTREVGIQEVHHKVQPDQVELIRRDYYANGGWETFLSYEDPKKDILIGLLRLRKASKKYTYRKEFTSQRTSIVRELHVYGSVVPLHSRDPRKFQHQGFGTLLMEEAERIAKEEHGSEKISVISGVGVRNYYGKLGYELDGPYMSKRI
notes: Elp3, S. cerevisiae, endogenous protein; source: endogenous, S. cerevisiae strains BS1173 and BSY2369, co-purified with Elp1-TAP or Elp6-TAP

Columns and labels:
endogenous Elp3 = target: B4; assay: cross-linking; XL-MS of purified Elongator (Elp1-TAP sample, 1 mg/ml) with isotope-coded DSS or DSG, 0.5–2 mM, 30 min at 37°C; xQuest/xProphet, ld score at least 30; conditions: both partners purified
[1] = target: T1, endogenously TAP-tagged Elp1 (S. cerevisiae (endogenous in strain …, UniProt Q06706 1-1349)); assay: tandem-affinity purification (SDS–PAGE); endogenous TAP-tagged bait from yeast lysate; IgG Sepharose, TEV elution, Calmodulin Sepharose, EGTA elution; HEPES pH 7.9, 125 mM NaCl; conditions: partners not purified
T1 construct: Elp1, S. cerevisiae, endogenous protein with TAP tag (Elp1-TAP::TRP1); also called Elp1-TAP
T1 sequence (looked up): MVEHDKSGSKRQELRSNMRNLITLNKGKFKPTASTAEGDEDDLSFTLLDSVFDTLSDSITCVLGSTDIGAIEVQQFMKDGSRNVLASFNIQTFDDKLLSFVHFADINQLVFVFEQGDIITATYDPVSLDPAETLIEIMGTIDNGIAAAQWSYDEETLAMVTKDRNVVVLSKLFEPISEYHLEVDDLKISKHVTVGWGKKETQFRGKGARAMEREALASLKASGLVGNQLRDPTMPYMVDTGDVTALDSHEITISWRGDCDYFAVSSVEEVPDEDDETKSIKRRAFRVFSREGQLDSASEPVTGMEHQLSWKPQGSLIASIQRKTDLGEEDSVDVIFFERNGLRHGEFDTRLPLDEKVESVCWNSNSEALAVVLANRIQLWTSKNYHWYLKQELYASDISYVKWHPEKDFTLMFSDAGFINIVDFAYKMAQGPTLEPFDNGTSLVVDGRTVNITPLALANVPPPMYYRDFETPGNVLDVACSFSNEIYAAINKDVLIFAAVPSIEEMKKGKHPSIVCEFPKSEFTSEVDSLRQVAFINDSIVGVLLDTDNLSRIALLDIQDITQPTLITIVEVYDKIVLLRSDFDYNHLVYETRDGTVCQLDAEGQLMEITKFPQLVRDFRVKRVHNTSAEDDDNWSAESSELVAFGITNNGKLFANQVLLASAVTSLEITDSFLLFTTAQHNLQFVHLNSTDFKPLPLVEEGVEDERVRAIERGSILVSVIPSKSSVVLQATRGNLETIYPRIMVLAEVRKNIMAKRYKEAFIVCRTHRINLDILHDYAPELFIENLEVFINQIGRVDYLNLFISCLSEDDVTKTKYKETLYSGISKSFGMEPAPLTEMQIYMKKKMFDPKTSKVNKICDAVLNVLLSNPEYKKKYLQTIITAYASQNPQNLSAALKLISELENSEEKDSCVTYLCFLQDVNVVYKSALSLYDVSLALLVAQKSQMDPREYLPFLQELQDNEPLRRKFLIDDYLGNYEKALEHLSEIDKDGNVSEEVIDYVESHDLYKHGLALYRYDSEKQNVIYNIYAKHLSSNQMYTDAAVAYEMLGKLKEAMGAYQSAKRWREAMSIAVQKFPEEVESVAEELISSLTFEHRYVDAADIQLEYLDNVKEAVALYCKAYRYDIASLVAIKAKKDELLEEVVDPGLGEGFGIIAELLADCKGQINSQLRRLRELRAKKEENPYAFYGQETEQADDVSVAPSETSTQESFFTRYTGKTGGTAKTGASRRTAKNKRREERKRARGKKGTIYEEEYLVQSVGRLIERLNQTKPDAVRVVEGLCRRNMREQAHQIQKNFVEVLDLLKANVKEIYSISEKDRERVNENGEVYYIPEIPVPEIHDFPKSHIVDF

[2] = target: T2, purified N-terminal region of Elp1 (S. cerevisiae); assay: ITC; VP-ITC; 20 mM Tris–HCl pH 7.5, 150 mM NaCl, 2 mM β-mercaptoethanol; 10 μM in the cell, 100 μM in the syringe; conditions: both partners purified
T2 chain: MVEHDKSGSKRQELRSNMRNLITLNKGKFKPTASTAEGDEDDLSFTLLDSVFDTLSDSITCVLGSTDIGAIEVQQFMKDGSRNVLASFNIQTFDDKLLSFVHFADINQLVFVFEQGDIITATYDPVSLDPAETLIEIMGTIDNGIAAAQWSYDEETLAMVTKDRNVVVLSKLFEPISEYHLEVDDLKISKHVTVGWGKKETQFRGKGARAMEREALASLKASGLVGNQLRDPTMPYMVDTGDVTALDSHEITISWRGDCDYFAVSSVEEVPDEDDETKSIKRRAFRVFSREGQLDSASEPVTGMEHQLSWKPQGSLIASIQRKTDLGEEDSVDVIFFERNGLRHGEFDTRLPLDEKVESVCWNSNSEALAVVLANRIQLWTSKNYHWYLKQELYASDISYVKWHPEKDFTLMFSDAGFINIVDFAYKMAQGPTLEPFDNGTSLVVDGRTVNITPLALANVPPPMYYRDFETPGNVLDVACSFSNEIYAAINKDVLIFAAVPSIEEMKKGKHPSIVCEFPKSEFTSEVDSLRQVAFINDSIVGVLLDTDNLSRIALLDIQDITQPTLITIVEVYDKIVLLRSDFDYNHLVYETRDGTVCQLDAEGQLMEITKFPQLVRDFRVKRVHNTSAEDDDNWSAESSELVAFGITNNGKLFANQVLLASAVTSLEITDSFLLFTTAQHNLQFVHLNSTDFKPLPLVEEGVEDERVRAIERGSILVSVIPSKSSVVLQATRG

[3] = target: T3, GST-tagged full-length Elp1 (S. cerevisiae, UniProt Q06706 1-1349); assay: pull-down; GST pull-down: 20 μg GST-tagged protein and increasing amounts of untagged partner with glutathione Sepharose, 2 h at 4°C, 20 mM Tris pH 7.5, 150 mM NaCl, 5 mM DTT, 0.1% Tween-20; five washes; SDS–PAGE, Coomassie; conditions: both partners purified
T3 construct: Elp1, Elongator subunit 1, S. cerevisiae; also called GST-Elp1; source: E. coli BL21 pSarRare, purified (NiNTA, S200 gel filtration); not shown: His6, N-terminal, kept; GST, N-terminal, kept
T3 sequence (looked up): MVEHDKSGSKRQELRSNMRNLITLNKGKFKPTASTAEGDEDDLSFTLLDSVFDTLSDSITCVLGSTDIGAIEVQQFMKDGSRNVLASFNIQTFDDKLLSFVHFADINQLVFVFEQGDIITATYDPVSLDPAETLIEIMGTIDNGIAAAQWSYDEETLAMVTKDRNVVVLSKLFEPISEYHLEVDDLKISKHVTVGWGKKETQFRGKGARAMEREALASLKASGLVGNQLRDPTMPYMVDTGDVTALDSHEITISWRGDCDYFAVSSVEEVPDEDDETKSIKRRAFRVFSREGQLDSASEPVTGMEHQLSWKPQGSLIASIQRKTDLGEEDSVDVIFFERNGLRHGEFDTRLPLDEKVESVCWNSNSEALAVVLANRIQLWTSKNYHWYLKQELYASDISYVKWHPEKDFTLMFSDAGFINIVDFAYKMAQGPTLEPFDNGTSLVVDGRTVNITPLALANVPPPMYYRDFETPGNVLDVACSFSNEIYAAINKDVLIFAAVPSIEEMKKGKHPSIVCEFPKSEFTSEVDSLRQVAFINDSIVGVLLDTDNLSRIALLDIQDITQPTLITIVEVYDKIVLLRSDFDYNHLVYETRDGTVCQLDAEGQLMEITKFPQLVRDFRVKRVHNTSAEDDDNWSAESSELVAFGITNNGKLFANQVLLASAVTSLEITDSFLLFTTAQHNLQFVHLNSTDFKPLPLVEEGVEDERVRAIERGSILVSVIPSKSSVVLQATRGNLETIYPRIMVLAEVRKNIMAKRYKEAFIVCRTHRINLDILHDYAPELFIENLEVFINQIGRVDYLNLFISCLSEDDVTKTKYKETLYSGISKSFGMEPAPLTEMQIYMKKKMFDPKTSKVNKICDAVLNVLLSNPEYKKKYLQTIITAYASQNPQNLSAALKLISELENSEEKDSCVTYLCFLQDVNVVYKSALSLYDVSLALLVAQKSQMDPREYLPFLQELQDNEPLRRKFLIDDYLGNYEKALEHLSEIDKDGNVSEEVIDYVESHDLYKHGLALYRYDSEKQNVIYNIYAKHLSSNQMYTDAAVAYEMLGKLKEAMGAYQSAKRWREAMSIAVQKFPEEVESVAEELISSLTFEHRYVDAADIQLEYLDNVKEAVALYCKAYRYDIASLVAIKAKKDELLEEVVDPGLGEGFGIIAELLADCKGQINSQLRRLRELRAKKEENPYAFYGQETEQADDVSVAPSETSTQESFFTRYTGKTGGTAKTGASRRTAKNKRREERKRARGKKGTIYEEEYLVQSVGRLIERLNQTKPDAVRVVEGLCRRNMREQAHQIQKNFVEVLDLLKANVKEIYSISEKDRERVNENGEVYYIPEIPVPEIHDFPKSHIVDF

B1: endogenous Elp4 (natural protein, UniProt Q02884 1-456, looked up)
chain: MSFRKRGEILNDRGSGLRGPLLRGPPRTSSTPLRTGNRRAPGNVPLSDTTARLKKLNIADESKTKMGLDSSHVGVRPSPATSQPTTSTGSADLDSILGHMGLPLGNSVLVEEQSTTEFHSILGKLFAAQGIVHNRISDSSADKTRNGDTHVIVLSLNQMFAKELPGIYKGSRKQMKKNLISEEESKVTVQNLNETQRSTPSRYKDLKIAWKYKLADEKRLGSPDRDDIQQNSEYKDYNHQFDITTRLMPAPIASELTFIAPTQPVSTILSQIEQTIKRNDKKLIRIVIPSLLHPAMYPPKMFESSEIIGLMHGVRSLVKKYYERVVLFASISIDIITPPLLVLLRNMFDSVINLEPFNQEMTEFLERVYKSQPGKIQHGLVHILKLPVFTDRGEMRVLKSEWAFKNGRKKFEIEQWGIPVDDAEGSAASEQSHSHSHSDEISHNIPAKKTKISLDY
notes: Elp4, S. cerevisiae, endogenous protein; source: endogenous, S. cerevisiae strains BS1173 and BSY2369, co-purified with Elp1-TAP or Elp6-TAP
- binding result (endogenous Elp3): binds
- binding result [1]: binds

B2: synthetic peptide of the conserved N-terminal region of Elp4 (aa1–27) (peptide, UniProt Q02884 1-27, looked up)
peptide: MSFRKRGEILNDRGSGLRGPLLRGPPR
notes: Elp4, S. cerevisiae, residues 1–27; source: synthetic peptide (Peptide Specialty Laboratories, Germany)
- Kd [2]: 1600 ± 400 nM

B3: Full-length His6-tagged ScElp3, refolded and anaerobically reconstituted (enzyme, S. cerevisiae, UniProt Q02908 1-557, looked up)
chain: MARHGKGPKTNKKKLAPEKERFIQCCADITLELTDSLTSGTTREINLNGLITKYSKKYKLKQQPRLTDIINSIPDQYKKYLLPKLKAKPVRTASGIAVVAVMCKPHRCPHIAYTGNICVYCPGGPDSDFEYSTQSYTGYEPTSMRAIRARYDPYEQARGRVEQLKQLGHSIDKVEYVLMGGTFMSLPKEYREDFIVKLHNALSGFNGNDIDEAILYSQQSLTKCVGITIETRPDYCTQTHLDDMLKYGCTRLEIGVQSLYEDVARDTNRGHTVRSVCETFAVSKDAGYKVVSHMMPDLPNVGMERDIEQFKEYFENPDFRTDGLKIYPTLVIRGTGLYELWKTGRYKSYSANALVDLVARILALVPPWTRIYRVQRDIPMPLVTSGVDNGNLRELALARMKDLGTTCRDVRTREVGIQEVHHKVQPDQVELIRRDYYANGGWETFLSYEDPKKDILIGLLRLRKASKKYTYRKEFTSQRTSIVRELHVYGSVVPLHSRDPRKFQHQGFGTLLMEEAERIAKEEHGSEKISVISGVGVRNYYGKLGYELDGPYMSKRI
notes: Elp3, Elongator subunit 3, S. cerevisiae; Carries a reconstituted Fe/S cluster; also called ScElp3H6
- binding result [3]: binds

Binder: B4
- binding result [1]: binds

B5: synthetic peptide of the conserved N-terminal region of Elp4 (aa1–10) (peptide, UniProt Q02884 1-10, looked up)
peptide: MSFRKRGEIL
notes: Elp4, S. cerevisiae, residues 1–10; source: synthetic peptide (Peptide Specialty Laboratories, Germany)
- Kd [2]: 2700 ± 300 nM
